Reference: PMC7890179, “Adiponectin forms a complex with atherogenic LDL and inhibits its downstream effects” (Journal of Lipid Research, 2020)
Values belong to the molecule of their own block, whether it stands above or below them.

Experiments:
[1] = target: copper-oxidized low density lipoprotein (human (endogenous in human plasma)); test: ELISA; native LDL or oxLDL (1 μg/ml) captured on anti-apoB monoclonal antibody HUC20 on a 384-well plate; recombinant adiponectin added for 1 h at 25°C, washed with PBS, detected with anti-adiponectin polyclonal antibody; apparent Kd, 1:1 reversible binding assumed
[2] = target: copper-oxidized low density lipoprotein (human (endogenous in human plasma), oxidized with 7.5 μM CuSO4 for 16 h (residues not stated)); test: as above; conditions: both partners purified

- Kd [1]: 45.3 nM
Molecule: globular form of adiponectin protein with an N-terminal His-tag sequence (domain or fragment; other documents disagree on this pair)

- Kd [2]: 15.7 nM
B1: Human recombinant full-length adiponectin protein (composed of the LMW, MMW, and HMW isoforms) with a C-terminal FLAG sequence (natural protein, UniProt Q15848 19-244, looked up)
chain: ETTTQGPGVLLPLPKGACTGWMAGIPGHPGHNGAPGRDGRDGTPGEKGEKGDPGLIGPKGDIGETGVPGAEGPRGFPGIQGRKGEPGEGAYVYRSAFSVGLETYVTIPNMPIRFTKIFYNQQNHYDGSTGKFHCNIPGLYYFAYHITVYMKDVKVSLFKKDKAMLFTYDQYQENNVDQASGSVLLHLEVGDQVWLQVYGEGERNGLYADNDNDSTFTGFLLYHDTN
notes: adiponectin, human, full-length recombinant protein; A mixture of trimers (LMW), hexamers (MMW) and HMW multimers; Secreted from HEK293 cells, so the signal peptide is probably absent (surmised); also called AdN; human recombinant full-length AdN; source: bought: BioVendor cat. no; RD172023100, produced in HEK293 cells
